This note sets out measurements from patent US20050182242A1, “Global analysis of protein activities using proteome chips” (priority 2001, published 2005).

In one data set the test system is PI(4,5)P2 liposomes. Briefly: Yeast proteome chip probed with PI(4,5)P2 liposomes. To be noted: liposome binding signal on yeast proteome chip, Cy3-streptavidin detection.
In the next data set the test system is PI(3,4,5)P3 liposomes. Briefly: Yeast proteome chip probed with PI(3,4,5)P3 liposomes. To be noted: liposome binding signal on yeast proteome chip, Cy3-streptavidin detection.
The next data set concerns PI(4)P liposomes. In words: Yeast proteome chip probed with PI(4)P liposomes. The settings on record: liposome binding signal on yeast proteome chip, Cy3-streptavidin detection.
In data set [1] the test system is phospholipids (phosphatidylinositols vs phosphatidylcholine). Briefly: Proteome chip lipid-binding screen, overall analysis of six liposomes (PI/PC specificity). To be noted: compared with phosphatidylcholine. The procedure, abridged:
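Yeast proteome chips probed with PC liposomes carrying 1% biotin DHPE, plus 5% PI(3)P, PI(4)P, PI(3,4)P2, PI(4,5)P2 or PI(3,4,5)P3, 1 h at RT. Binding detected with Cy3/Cy5-streptavidin; PI signals normalized to PC signals, giving PI/PC ratios (>1.3 taken as PI-preferential).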

For a further data set, the system named is PI(3)P liposomes. Briefly: Yeast proteome chip probed with PI(3)P liposomes. To be noted: liposome binding signal on yeast proteome chip, Cy3-streptavidin detection.

B1: MY04: yeast class V myosin heavy chain, GST-HisX6 fusion (protein, UniProt P32492 1-1471, looked up)
Myosin-4: MSFEVGTKCWYPHKEQGWIGGEVTKNDFFEGTFHLELKLEDGETVSIETNSFENDDDHPTLPVLRNPPILESTDDLTTLSYLNEPAVLHAIKKRYMNGQIYTYSGIVLIAANPFDKVDHLYSREMIQNYSSKRKDELEPHLFAIAEEAYRFMVHEKANQTVVVSGESGAGKTVSAKYIMRYFASVQESNNREGEVEMSQIESQILATNPIMEAFGNAKTTRNDNSSRFGKYLQILFDENTTIRGSKIRTYLLEKSRLVYQPETERNYHIFYQILEGLPEPVKQELHLSSPKDYHYTNQGGQPNIAGIDEAREYKITTDALSLVGINHETQLGIFKILAGLLHIGNIEMKMTRNDASLSSEEQNLQIACELLGIDPFNFAKWIVKKQIVTRSEKIVTNLNYNQALIARDSVAKFIYSTLFDWLVDNINKTLYDPELDQQDHVFSFIGILDIYGFEHFEKNSFEQFCINYANEKLQQEFNQHVFKLEQEEYVKEEIEWSFIEFSDNQPCIDLIENKLGILSLLDEESRLPSGSDESWASKLYSAFNKPPSNEVFSKPRFGQTKFIVSHYAVDVEYEVEGFIEKNRDSVSLGHLDVFKATTNPIFKQILDNRELRSDDAPEEQNTEKKIMIPARLSQKKPTLGSMFKKSLGELMAIINSTNVHYIRCIKPNSEKKPWEFDNLMVLSQLRACGVLETIRISCAGFPSRWTFDEFVQRYFLLTDYSLWSGILYNPDLPKEAIVNFCQSILDATISDSAKYQIGNTKIFFKAGMLAFLEKLRTNKMNEICIIIQKKIRARYYRLQYLQTMESIKKCQSQIRSLLVRTRVDHELKTRAAILLQTNIRALWKREYYRAAIGQIIKLQCTCKRKLILDSVNRKFMLMAAVIIQSYIRSYGHKTDYRTLKRSSILVQSAMRMQLARRRYIVLQKEVEERNIRASYGIGLLEEAIEFKNSFILNLEMLNDSYTRLTQLLQGDLSNIPSKQRQEYETIVNGYNDKISKLKTLQVEIMNTLNKKNALKERKKKQSSLIQSHMQSLAAIKGNKPSRLSDEVKSMKQELAFIENVIAQDFTTTYSANKNDKVKGLGIAGQQVKPKLVNVIRRESGNPDLLELLMDLNCYTLEVTEGYLKKVNVTEVNGDNVLGPIHVITTVVSSLVRNGLLIQSSKFISKVLLTVESIVMSLPKDETMLGGIFWLSNLSRLPAFAANQKTLYEANGGDEKDKLTLIYLNDLENETLKVFDKIYSTWLVKFMKHASAHIEIFDMVLNEKLFKNSGDEKFAKLFTFLNEFDAVLCKFQVVDSMHTKIFNDTLKYLNVMLFNDLITKCPALNWKYGYEVDRNIERLVSWFEPRIEDVRPNLIQIIQAVKILQLKISNLNEFKLLFDFWYALNPAQIQAILLKYKPANKGEAGVPNEILNYLANVIKRENLSLPGKMEIMLSAQFDSAKNHLRYDTSAITQNSNTEGLATVSKIIKLDRK
modifications: GST-HisX6 tag
notes: yeast class V myosin heavy chain, GST-HisX6 fusion
On to B1, for which, in the data set with PI(4,5)P2 liposomes, the “PI(4, 5)P2” value is 4.79. Also, the “PI(3, 4, 5)P3” value in the data set on PI(3,4,5)P3 liposomes worked out at 51.07. The “PI(4)P” value in the data set with PI(4)P liposomes worked out at 36.58. The “preferential binding of particular phosphatidylinositol lipids” value in data set [1] is “preferentially binds PI(4,5)P2”. In addition, the “PI(3)P” value in the data set on PI(3)P liposomes worked out at 2.00.

B2: CMK1: yeast calcium/calmodulin-dependent serine/threonine protein kinase, GST-HisX6 fusion (protein)
chain: MDDKVSEKESSPKQTEEDSEGKMAHVQPASYVNKKKYVFGKTLGAGTFGVVRQAKNTETGEDVAVKILIKKALKGNKVQLEALYDELDILQRLHHPNIVAFKDWFESKDKFYIITQLAKGGELFDRILKKGKFTEEDAVRILVEILSAVKYMHSQNIVHRDLKPENLLYIDKSDESPLVVADFGIAKRLKSDEELLYKPAGSLGYVAPEVLTQDGHGKPCDIWSIGVITYTLLCGYSAFRAERVQDFLDECTTGEYPVKFHRPYWDSVSNKAKQFILKALNLDPSKRPTAAELLEDPWIICTELKTHNLLPGLKEGLDARQKFRNSVERVRLNMKIQKLRDLYLEQTESDSDFDEGSQANGSVPPLKATDTSQLSKKLSEEEQSKLKSELTSKAFAQLVNTVLAEKEKFLNINRVCSSDSDLPGSDIKSLDEAKEKPEGKDTKTEE
modifications: left off: a dimerising Fc or GST
notes: yeast calcium/calmodulin-dependent serine/threonine protein kinase, GST-HisX6 fusion
As to B2, the “PI(4, 5)P2” value in the data set with PI(4,5)P2 liposomes was found to be 545.23. For the same molecule, the “PI(3, 4, 5)P3” value with PI(3,4,5)P3 liposomes was determined as 699.07. Besides, the “PI(4)P” value in the data set on PI(4)P liposomes is on record as 105.39. Further, the “PI(3)P” value in the data set with PI(3)P liposomes is listed as 7.00.
